This is an account of results in PMC12839305.

The assay concerns the target RVFV glycoprotein Gn head domain (154–469 aa) (Rift Valley fever virus) (UniProt P21401). Put plainly: BLI; […]; 300 s association, 300 s dissociation; […], global 1:1 model; Octet RED96.

As for “full-length LRP1 (low-density lipoprotein receptor-related protein 1), native, from porcine lung”, the dissociation constant Kd – broadly, the constant that tells how readily two partners part at equilibrium – is 9.2 nM.
